Reference: patent US20220177578A1 (MAGENTA THERAPEUTICS, published 2022)

Target: T1, Human CD117 antigen (recombinant CD117 ectodomain) (human, UniProt P10721 26-520)
T1 construct: also called c-kit; ectodomain of human CD117
Assay: chemical cross-linking, High-Mass MALDI MS and nLC-Orbitrap MS of the CD117/Ab67 complex
Procedure: A sample of Ab67 was diluted in distilled water to a concentration of 2.7 mg/mL. 1 μL of the diluted Ab67 was then mixed with 1 μL of a matrix composed of a re-crystallized sinapinic acid matrix (10 mg/mL) in acetonitrile/water (1:1, v/v), TFA (0.1% (K200 MALDI Kit). The mixture was submitted to cross-linking using CovalX's K200 MALDI MS analysis kit. The protein solutions were mixed with 1 μl of K200 Stabilizer reagent (2 mg/ml) and incubated at room temperature. After the incubation time (180 minutes) the samples were prepared for MALDI analysis. The samples were analyzed by High-Mass MALDI MS immediately after crystallization at room temperature.
After digestion, formic acid 1% final was added to the solution. After proteolysis, 10 ul of the peptide solution generated by proteolysis were loaded onto a nano-liquid chromatography system (Ultimate 3000-RSLC). The cross-linked peptides were analyzed using Xquest version 2.0 and Stavrox 3.6. software. nLC-LTQ-Orbitrap MS/MS analysis using a nLC Ultimate 3000-RSLC system in line with a LTQ-Orbitrap mass spectrometer (Thermo Scientific) was performed.

T1 sequence (P10721 other isoform, or with tags, fused parts or gaps): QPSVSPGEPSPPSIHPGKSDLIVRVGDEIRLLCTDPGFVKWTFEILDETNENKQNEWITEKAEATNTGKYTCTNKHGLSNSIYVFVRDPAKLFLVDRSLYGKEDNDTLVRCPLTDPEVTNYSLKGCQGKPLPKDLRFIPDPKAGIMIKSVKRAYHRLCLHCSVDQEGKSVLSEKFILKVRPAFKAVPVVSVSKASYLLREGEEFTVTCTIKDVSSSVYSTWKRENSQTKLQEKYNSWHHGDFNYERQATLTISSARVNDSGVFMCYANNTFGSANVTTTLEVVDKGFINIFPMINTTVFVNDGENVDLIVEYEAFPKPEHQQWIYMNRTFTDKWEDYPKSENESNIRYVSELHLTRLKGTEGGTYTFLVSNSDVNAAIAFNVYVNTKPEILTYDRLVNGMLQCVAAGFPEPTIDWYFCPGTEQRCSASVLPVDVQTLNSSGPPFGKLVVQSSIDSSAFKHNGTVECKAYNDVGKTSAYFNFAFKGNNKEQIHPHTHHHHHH

B1: Antibody 67 (Ab67), human anti-CD117 antibody (antibody, V domains shown)
VH: EVQLVESGGGLVQPGGSLRLSCAASGFTFSDADMDWVRQAPGKGLEWVGRTRNKAGSYTTEYAASVKGRFTISRDDSKNSLYLQMNSLKTEDTAVYYCAREPKYWIDFDLWGRGTLVTVSS
VL: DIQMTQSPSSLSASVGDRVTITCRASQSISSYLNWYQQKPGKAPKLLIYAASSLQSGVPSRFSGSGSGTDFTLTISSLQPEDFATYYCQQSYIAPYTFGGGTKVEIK
notes: also called Antibody HC-67/LC-67
B1: binds.
